According to patent US20240190999A1 (Molecular Partners, published 2024):

B1: bispecific construct #45 (designed binder)
chain: MRGSHHHHHHGSDLGEKLLVAALYGQDDEVRILLAAGADVNAKDQWGLTPLHKAALQGHLEIVEVLLKAGADVNAKDERGHTPLHWAARFGHLEIVEVLLKAGADVNAQDQKGYTPADLAALWGHEDIAEVLQKAAGSPTPTPTTPTPTPTTPTPTPTGSDLGDKLLHAAYYGQDDEVRILLAAGADVNAKDTQGLTPLHLAAAIGHLEIVEVLLKAGADVNAKDAYGETPLHLVASRGHLEIVEVLLKAGADVNAQDYSGRTPADLAAEYGHEDIAEVLQKLN
notes: 56 is used; also called FAP-4-1BB bispecific construct #45
B2: bispecific construct #48 (designed binder)
chain: MRGSHHHHHHGSDLGEKLLVAALYGQDDEVRILLAAGADVNAKDQWGLTPLHKAALQGHLEIVEVLLKAGADVNAKDERGHTPLHWAARFGHLEIVEVLLKAGADVNAQDQKGYTPADLAALWGHEDIAEVLQKAAGSPTPTPTTPTPTPTTPTPTPTGSDLGKKLLEAARAGQDDEVRELLKAGADVNAKDQEHGSTPLHLAANYGHLEIVEVLLKAGADVNAKNWWGNTPLHLAAVYGHLEIVEVLLKAGADVNAKDNHGHTPLHLAAWYGHLEIVEVLLKAGADVNAQDKSGKTPADLAADAGHEDIAEVLQKAA
notes: 56 is used; also called FAP-4-1BB bispecific construct #48
B3: bispecific construct #44 (designed binder)
chain: MRGSHHHHHHGSDLGEKLLVAALYGQDDEVRILLAAGADVNAKDQWGLTPLHKAALQGHLEIVEVLLKAGADVNAKDERGHTPLHWAARFGHLEIVEVLLKAGADVNAQDQKGYTPADLAALWGHEDIAEVLQKAAGSPTPTPTTPTPTPTTPTPTPTGSDLGQKLLKAAQEGQDDEVRELLKAGADVNAKDLRGITPLHVAAWQGHLEIVEVLLKAGADVNAKDSKGETPLHLAAFRGHLEIVEVLLKAGADVNAQDQQGETPADLAALAGHVDIAEVLQKLN
notes: also called FAP-4-1BB bispecific construct #44
B4: bispecific construct #47 (designed binder)
chain: MRGSHHHHHHGSDLGEKLLVAALYGQDDEVRILLAAGADVNAKDQWGLTPLHKAALQGHLEIVEVLLKAGADVNAKDERGHTPLHWAARFGHLEIVEVLLKAGADVNAQDQKGYTPADLAALWGHEDIAEVLQKAAGSPTPTPTTPTPTPTTPTPTPTGSDLGKKLLEAARAGQDDEVRELLKAGADVNAKDTYGETPLHLAAWKGHLEIVEVLLKAGADVNAKDSIGITPLHVAAHHGHLEIVEVLLKAGADVNAKDKWGRTPLHLAALLGHLEIAEVLLKAGADVNAQDKSGKTPADLAADAGHDDIAEVLQKLN
notes: 56 is used; also called FAP-4-1BB bispecific construct #47

Legend:
[1] = target: T1, human 4-1BB on transfected HT1080 NF-kB-luciferase reporter cells (human, UniProt Q07011 24-255); experiment: cell-based or functional assay
[2] = target: T1, human 4-1BB on transfected HT1080 …; experiment: cell-based or functional assay; remark: listed apart in the source
[3] = target: T1, human 4-1BB on transfected HT1080 …; experiment: cell-based or functional assay; remark: listed apart in the source
[4] = target: T2, biotinylated human 4-1BB (bio.h4-1BB) (human, UniProt Q07011 24-186, limits assumed, biotinylated (site not stated)); experiment: SPR (ProteOn XPR36); end of the group's range, tied to #45 by Table 15
T2 construct: also called CD137
Protocol: (§1) Assay set-up: Briefly, SPR measurements were performed using a ProteOn XPR36 instrument (BioRad) as described above. Biotinylated human and cynomolgus 4-1BB and human FAP were immobilized either directly or indirectly via NeutrAvidin (˜6000 RU pre-coated) on a GLC chip to reach 600 RU, 700 RU and 2000 RU, respectively. The interaction of FAP-4-1BB bispecific constructs to the coated targets was measured by injecting the bispecific constructs in a serial dilution of 50, 16.7, 5.6, 1.9 and 0.6 nM with an association of 120 s and dissociation of 1800 s using a constant flow rate of 30 μl/min. Targets were regenerated between the individual measurements using 10 mM glycine pH 2 and 124 mM H₃PO₄. The signals were double referenced against the running buffer (PBST) treated control lane.

[5] = target: T3, human fibroblast activation protein (hFAP) (human, UniProt Q12884 26-760, limits assumed); experiment: SPR (ProteOn XPR36), hFAP immobilised on GLC chip, construct as analyte
T3 construct: Recombinant soluble protein; also called human FAP; rhFAP
Protocol: as §1

[6] = target: T2, biotinylated human 4-1BB (bio.h4-1BB); experiment: SPR (ProteOn XPR36), biotinylated h4-1BB immobilised on GLC chip, construct as analyte
Protocol: as §1

[7] = target: T2, biotinylated human 4-1BB (bio.h4-1BB); experiment: SPR (ProteOn XPR36); end of the group's range, tied to #48 by Table 15
Protocol: as §1

[8] = target: T3, human fibroblast activation protein …; experiment: SPR (ProteOn XPR36); end of the group's range, tied to #44 by Table 15
Protocol: as §1

[9] = target: T3, human fibroblast activation protein …; experiment: SPR (ProteOn XPR36); end of the group's range, tied to #47 by Table 15
Protocol: as §1

T3 sequence (Q12884 26-760 limits assumed): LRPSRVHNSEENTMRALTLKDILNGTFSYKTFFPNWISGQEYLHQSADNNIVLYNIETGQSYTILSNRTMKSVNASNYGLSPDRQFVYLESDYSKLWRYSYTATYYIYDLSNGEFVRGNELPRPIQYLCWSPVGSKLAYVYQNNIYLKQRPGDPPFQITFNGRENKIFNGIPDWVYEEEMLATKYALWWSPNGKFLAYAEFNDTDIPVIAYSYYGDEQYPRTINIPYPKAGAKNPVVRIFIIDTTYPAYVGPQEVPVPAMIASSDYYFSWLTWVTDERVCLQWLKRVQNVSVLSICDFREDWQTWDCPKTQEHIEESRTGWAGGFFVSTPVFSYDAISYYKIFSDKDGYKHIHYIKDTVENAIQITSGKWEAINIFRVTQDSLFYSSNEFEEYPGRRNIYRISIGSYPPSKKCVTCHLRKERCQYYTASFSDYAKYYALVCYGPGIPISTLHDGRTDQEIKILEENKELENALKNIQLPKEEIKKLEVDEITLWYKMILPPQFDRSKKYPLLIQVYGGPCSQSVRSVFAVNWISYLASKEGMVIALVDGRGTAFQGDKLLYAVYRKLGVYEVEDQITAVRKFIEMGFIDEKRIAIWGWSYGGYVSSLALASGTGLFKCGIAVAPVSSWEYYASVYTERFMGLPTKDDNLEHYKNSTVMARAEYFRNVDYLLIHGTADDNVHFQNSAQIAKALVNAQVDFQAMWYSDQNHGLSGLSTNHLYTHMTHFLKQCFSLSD
T2 sequence (Q07011 24-186 limits assumed): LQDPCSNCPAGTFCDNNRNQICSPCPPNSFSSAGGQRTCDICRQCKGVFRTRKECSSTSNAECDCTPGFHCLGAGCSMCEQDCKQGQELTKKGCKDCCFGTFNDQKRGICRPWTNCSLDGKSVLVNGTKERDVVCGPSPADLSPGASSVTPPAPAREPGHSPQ
T1 sequence (Q07011 24-255 limits assumed): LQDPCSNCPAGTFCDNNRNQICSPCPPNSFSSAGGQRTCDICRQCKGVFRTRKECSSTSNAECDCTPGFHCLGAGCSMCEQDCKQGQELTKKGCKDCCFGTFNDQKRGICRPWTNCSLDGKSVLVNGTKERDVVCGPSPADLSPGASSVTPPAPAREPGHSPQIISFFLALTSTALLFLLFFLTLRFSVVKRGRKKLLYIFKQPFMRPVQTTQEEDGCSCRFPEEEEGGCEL

Binder	EC50, 4-1BB activation in HT1080 reporter cells in presence of FAP-beads [1] [nM]	EC50, 4-1BB activation in HT1080 reporter cells in presence of FAP-expressing CHO cells (Population 1) [2] [nM]	EC50, 4-1BB activation in HT1080 reporter cells in presence of FAP-expressing CHO cells (Population 2) [3] [nM]	Kd [4] [nM]	Kd [5] [nM]	Kd [6] [nM]	Kd [7] [nM]	Kd [8] [nM]	Kd [9] [nM]
B1	5.15	0.67	0.39	0.4 to 1.5	0.33	1.47	–	–	–
B2	3.71	0.28	0.16	–	0.17	0.44	0.4 to 1.5	–	–
B3	4.59	0.47	0.36	–	0.36	1.45	–	0.1 to 0.4	–
B4	6.19	0.36	0.18	–	0.07	0.77	–	–	0.1 to 0.4
